Experimental data taken from patent publication US20230358742A1 (MIT, published 2023).

T1: His-LSP (LMOf2365_0639, Listeria monocytogenes surface protein, with N-terminal 6x-histidine tag) (Listeria monocytogenes)
T1 construct: also called Listeria surface protein
T1 chain: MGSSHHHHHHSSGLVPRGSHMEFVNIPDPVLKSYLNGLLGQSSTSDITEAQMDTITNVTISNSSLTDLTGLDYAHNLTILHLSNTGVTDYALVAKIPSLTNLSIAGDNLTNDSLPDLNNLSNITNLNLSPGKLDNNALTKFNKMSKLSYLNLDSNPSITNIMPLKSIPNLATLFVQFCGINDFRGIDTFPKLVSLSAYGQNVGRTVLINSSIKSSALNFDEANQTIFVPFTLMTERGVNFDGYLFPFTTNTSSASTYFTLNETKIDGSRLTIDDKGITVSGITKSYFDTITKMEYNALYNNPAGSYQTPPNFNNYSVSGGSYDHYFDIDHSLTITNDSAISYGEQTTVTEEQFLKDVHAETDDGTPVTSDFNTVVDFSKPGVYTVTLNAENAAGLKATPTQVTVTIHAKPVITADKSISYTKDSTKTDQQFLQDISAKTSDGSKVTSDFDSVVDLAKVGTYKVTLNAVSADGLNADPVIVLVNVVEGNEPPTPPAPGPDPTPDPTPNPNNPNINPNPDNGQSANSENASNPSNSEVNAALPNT


Legend:
[1] = target: T1, His-LSP (LMOf2365_0639, Listeria …); test: flow cytometry, clonal yeast-surface display, 20 nM His-LSP
[2] = target: T1, His-LSP (LMOf2365_0639, Listeria …); test: FACS histograms, clonal yeast-surface display, 20 nM of LSP (FIG. 3B)

Binder	binding result [1]	binding result [2]
rcSso7d.LSP.5 (designed binder, also called clone 5; Clone 5) MATVKFTYQGEEKQVDISKIKWVRRAGQWIDFAYDEGGGAKGYGIVSEKDAPKELLQCWKS	binds	
rcSso7d.LSP.7 (designed binder, also called clone 7; Clone 7) MATVKFTYQGEEKQVDISKIKIAVYRYGQYIYFSYDEGGGASGIGKVSEKDAPKELLQMLEKQ	binds	
rcSso7d.LSP.3 (yeast-surface displayed) (designed binder, also called clone 3; Clone 3) MATVKFTYQGEEKQVDISKIKIAKRYGQIIDFSYDEGGGARGWGIVSEKDAPKELLQMLEKQ		binds
MATVKFTYQGEEKQVDISKIKDVGRHGQHICFWL (designed binder, also called clone 6; Clone 6) [rcSso7d.LSP.6]	binds	
MATVKFTYQGEEKQVDISKIKDVGRYGQRICFWL (designed binder, also called clone 4; Clone 4) [rcSso7d.LSP.4]		binds
MATVKFTYQGEEKQVDISKIKDVGRSGQNICFYL (designed binder, also called clone 1; Clone 1) [rcSso7d.LSP.1]	binds	
MATVKFTYQGEEKQVDISKIKDVGRHGQKICFLL (designed binder, also called clone 2; Clone 2) [rcSso7d.LSP.2]		binds
